From publication PMC11029812, “Liver-targeted polymeric prodrugs delivered subcutaneously improve tafenoquine therapeutic window for malaria radical cure” (Science Advances, 2024)

Legend:
[1] = Tissue pharmacokinetics of released TQ and its metabolites in liver, plasma and urine (LC-MS/MS); type: in vivo, BALB/c mice; conditions: mouse, in vivo
[2] = system: G6PD-deficient huRBCs; assay: Hemotoxicity in humanized G6PD deficiency mouse model; type: in vivo, human RBCs engrafted in NOD/SCID mice
Experimental: Following procedures as previously published ([46]), hemotoxicity studies using huRBC engraftments were conducted in mice.
Female (8 to 9 weeks) NOD.CB17-Prkdcscid/J [nonobese diabetic severe combined immunodeficient (NOD/SCID)] mice were purchased from The Jackson Laboratory (Bar Harbor, ME). The animals were housed in a cage maintained in a specific pathogen–free animal facility and were acclimated for 1 week in the facility before initiation of experimental procedures. Sterile food and water were provided ad libitum throughout the study as previously described ([64]). All animal studies were performed under IACUC-approved protocols and adhere to the principles stated in the Guide for the Care and Use of Laboratory Animals ([100]).
Polymer solutions for SC administration were prepared in DPBS at the final dosing concentrations. All drug concentrations were calculated per the free base molecular weights of TQ. The TQ parent compound was administered intragastrically via an intragastric feeder tube. Polymers and vehicle were administered SC in the right flank. TQ, pSVCTQ, and vehicle were given as a single dose on day 0. In this model, the TQ dose studied was 10 mg/kg; pSVCTQ was tested at doses of 2.5, 5.0, or 10 mg/kg TQ equivalent.
The percentage of huRBCs at the end of this period was analyzed by flow cytometry to evaluate glycophorin A (huRBCs) and Ter119 (mouse RBCs) circulating in peripheral blood. […] The G6PD-deficient huRBC NOD/SCID mice were dosed with pSVCTQ or parent drug prepared as described above, with three to four mice per group. On days 4 and 7 following dosing, huRBC levels were assessed again by flow cytometry (glycophorin^+Ter119^−), along with the percentage of murine reticulocytes (CD71^+Ter119) as an additional marker of hemolytic toxicity. Mice were euthanized on day 7 following initiation of treatment.
Microsoft Excel and GraphPad Prism were used throughout the PK analysis to process the data, calculate pharmacokinetic parameters, and yield statistical information. A linear regression model was produced using the least squares fitting method with 1/x^2 scaling for the assay calibrators. […] For the G6PD deficiency model, data analysis was performed using GraphPad Prism (GraphPad Software). […] An F test comparing the two dose-response curves was also run. For all other work, a combination of Microsoft Excel and GraphPad Prism was used.

[3] = system: P. cynomolgi hypnozoites; assay: P. cynomolgi anti-hypnozoite assay in primary NHP hepatocytes (radical cure mode); type: cell-based; conditions: treatment days 4 to 7 after infection, readout day 8
Experimental: (§1) Cryopreserved primary cynomolgus monkey hepatocytes (lot STX) and hepatocyte culture medium (HCM) (InVitroGro CP medium) were obtained from BioIVT Inc. (Baltimore, MD, USA) and thawed following the manufacturer’s recommendations. Hepatocytes were seeded in 384-well collagen-coated plates and used for experiments within 2 days after seeding as previously described ([52]). Infectious sporozoites were obtained from Anopheles dirus mosquitoes infected with P. cynomolgi B strain and were used to infect the plated primary NHP hepatocytes 2 days after seeding ([52], [102]). HCM was changed the day after infection and every other day thereafter until drug treatment. […]
(§2) Imaging and image analysis of assay plates were completed using an Operetta CLS high-content imaging system and Harmony 4.9 software (PerkinElmer, Waltham, MA, USA). […] Using similar methodology described previously, parasites were counted with the TRITC channel and were identified by area, mean intensity, maximum intensity, and cell roundness parasites ([50], [99]–[102]). […] Percent inhibition (PI) and toxicity values were calculated relative to in-plate negative controls for parasites and hepatocytes, respectively, using GraphPad Prism software (GraphPad Software Inc., USA, Windows version 9.5.1) using the average of experimental and biological replicates. […]

[4] = system: primary NHP hepatocytes; assay: Hepatocyte toxicity in the P. cynomolgi anti-hypnozoite assay; type: cell-based, cynomolgus monkey; conditions: treatment days 4 to 7 after infection, readout day 8
Experimental: as §1, §2

In the case of p(GalNAc-MA-co-SVCTQ-MA) [pSVCTQ], the “AUC, liver” value ([1]; iv, 25 mg/kg) is reported as 2550 μg/g liver*hour, the “AUC, plasma” value ([1]; iv, 25 mg/kg) is reported as 15.53 μg/ml plasma* hour and the “Cmax, liver” value ([1]; iv, 25 mg/kg) is reported as 57 μg/g liver. The “Cmax, plasma” value ([1]; iv, 25 mg/kg) was 0.20 μg/ml plasma, the “Liver:plasma AUC ratio” value ([1]; iv, 25 mg/kg) was 164 and the “Tmax, liver” value ([1]; iv, 25 mg/kg) was 8 h. For the same substance, the “Tmax, plasma” value ([1]; iv, 25 mg/kg) was 2 h, the “OQTQ metabolite in urine” value ([1]; sc) was “high level” and the “Reduction of the Cmax of TQ in blood” value ([1]; sc) was “over 75%”. The “Reduction of the blood AUC over 14 days” value ([1]; sc) was “more than 50%”, the “AUC, liver” value ([1]; sc, 10 mg/kg) was 2422 μg/g liver*hour and the “AUC, plasma” value ([1]; sc, 10 mg/kg) was 9.617 μg/ml plasma* hour. The “CTQ metabolite in plasma” value ([1]; sc, 10 mg/kg) was “absence”, the “Cmax, liver” value ([1]; sc, 10 mg/kg) was 25 μg/g liver and the “Cmax, plasma” value ([1]; sc, 10 mg/kg) was 0.10 μg/ml plasma. For the same substance, the “Liver:plasma AUC ratio” value ([1]; sc, 10 mg/kg) was 252, the “OQTQ metabolite in plasma” value ([1]; sc, 10 mg/kg) was “low” and the “Tmax, liver” value ([1]; sc, 10 mg/kg) was 8 h. For the same substance, the “Tmax, plasma” value ([1]; sc, 10 mg/kg) was 24 h, the “Dose resulting in 50% hemolysis (TD50)” value ([2]; curve fit of Fig. 4B, single dose, pSVCTQ SC, TQ oral, day 7) was 11.2 mg/kg and the “Reduction of hemotoxicity compared to oral TQ” value ([2]; from median effective doses) was “greater than twofold”. The “Median effective dose (dose that results in 50% huRBC loss by day 7 relative to vehicle control)” value ([2]; single dose day 0, pSVCTQ SC, TQ oral, A− G6PD-deficient donor) was 11.4 mg/kg, the IC50 [3] was 25.6 µM and the IC50 [4] was greater than 161 µM.
